Patent US20190300620A1

Target: CD46 on target cells (LNCAP-C4-B2 and other prostate cancer cell lines) (UniProt P15529)
Experiment: cell-based or functional assay

UniProt P15529, sequence (P15529 35-392 limits assumed): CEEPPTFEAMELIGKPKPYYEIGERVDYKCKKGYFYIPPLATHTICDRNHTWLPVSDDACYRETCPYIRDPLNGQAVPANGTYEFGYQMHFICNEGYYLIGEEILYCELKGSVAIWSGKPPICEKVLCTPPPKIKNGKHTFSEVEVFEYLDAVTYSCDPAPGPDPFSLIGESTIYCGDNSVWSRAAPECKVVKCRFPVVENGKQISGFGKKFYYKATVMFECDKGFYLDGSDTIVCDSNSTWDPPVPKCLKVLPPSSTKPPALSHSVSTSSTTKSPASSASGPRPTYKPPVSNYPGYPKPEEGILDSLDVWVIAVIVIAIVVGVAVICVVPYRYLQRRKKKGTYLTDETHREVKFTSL

For “anti-CD46 CAR (YS5FL-scFv in a second generation lentivirus CAR containing CD28 and CD3zeta), on transduced human T cells”, the killing rate of LNCAP-C4-B2 target cells (real time cytotoxicity assay, impedance, effector:target 10:1) was over 99%.
